Data as given in article PMC10786891, “Massively parallel profiling of RNA-targeting CRISPR-Cas13d”.

T1: EsCas13d, nuclease-dead (Eubacterium siraeum, UniProt B0MS50, R295A;H300A;R849A;H854A)
T1 sequence: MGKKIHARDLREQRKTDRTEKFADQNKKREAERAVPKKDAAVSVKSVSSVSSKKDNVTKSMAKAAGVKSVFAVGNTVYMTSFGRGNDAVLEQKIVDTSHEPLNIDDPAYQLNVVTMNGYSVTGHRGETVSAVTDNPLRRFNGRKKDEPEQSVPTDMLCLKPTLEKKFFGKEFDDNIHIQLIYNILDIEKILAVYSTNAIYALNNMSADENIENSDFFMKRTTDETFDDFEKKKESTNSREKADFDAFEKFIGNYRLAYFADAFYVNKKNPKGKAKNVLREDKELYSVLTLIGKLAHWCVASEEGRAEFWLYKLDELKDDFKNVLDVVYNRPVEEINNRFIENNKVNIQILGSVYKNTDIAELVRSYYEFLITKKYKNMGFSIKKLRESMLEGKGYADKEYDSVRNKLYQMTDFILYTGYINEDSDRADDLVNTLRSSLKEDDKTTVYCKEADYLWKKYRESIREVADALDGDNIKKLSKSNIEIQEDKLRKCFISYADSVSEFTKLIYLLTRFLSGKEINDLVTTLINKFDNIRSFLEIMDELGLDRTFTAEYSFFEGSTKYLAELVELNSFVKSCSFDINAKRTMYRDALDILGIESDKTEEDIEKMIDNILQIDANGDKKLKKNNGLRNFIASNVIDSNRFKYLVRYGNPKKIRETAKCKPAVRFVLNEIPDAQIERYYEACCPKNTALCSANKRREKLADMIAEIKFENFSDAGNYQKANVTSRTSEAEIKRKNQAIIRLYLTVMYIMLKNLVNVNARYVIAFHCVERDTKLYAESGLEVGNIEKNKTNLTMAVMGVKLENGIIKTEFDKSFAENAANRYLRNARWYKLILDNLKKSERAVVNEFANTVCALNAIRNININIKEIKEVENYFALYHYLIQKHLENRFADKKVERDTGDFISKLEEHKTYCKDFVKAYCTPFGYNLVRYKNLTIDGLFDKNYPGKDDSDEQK

B1: target 3 C1U,U7G (mixed)
RNA 1: CACCCGUGCAAAAUUGCAGGGGUCUAAAACGACCUGAAUAUUUCAGAUCAAA
RNA 2: GGGAAUGGAUCCACAUCUACGAAUUCGUUUUUGAUCUGAAAUAUGCAGGUUUGCAGAUCGGAAGAGCACACGU
B2: target 3 insU 3' of 16,insG 3' of 1 (mixed)
RNA 1: CACCCGUGCAAAAUUGCAGGGGUCUAAAACGACCUGAAUAUUUCAGAUCAAA
RNA 2: GGGAAUGGAUCCACAUCUACGAAUUCGUUUUUGAUCUUGAAAUAUUCAGGUCGUGCAGAUCGGAAGAGCACACGU
B3: target 3 insA 3' of 10 (mixed)
RNA 1: CACCCGUGCAAAAUUGCAGGGGUCUAAAACGACCUGAAUAUUUCAGAUCAAA
RNA 2: GGGAAUGGAUCCACAUCUACGAAUUCGUUUUUGAUCUGAAAUAAUUCAGGUCUGCAGAUCGGAAGAGCACACGU
B4: target 3 insA 3' of 7,insC 3' of 3 (mixed)
RNA 1: CACCCGUGCAAAAUUGCAGGGGUCUAAAACGACCUGAAUAUUUCAGAUCAAA
RNA 2: GGGAAUGGAUCCACAUCUACGAAUUCGUUUUUGAUCUGAAAUAUUACAGGCUCUGCAGAUCGGAAGAGCACACGU
B5: target 3 insU 3' of 22,insA 3' of 4 (mixed)
RNA 1: CACCCGUGCAAAAUUGCAGGGGUCUAAAACGACCUGAAUAUUUCAGAUCAAA
RNA 2: GGGAAUGGAUCCACAUCUACGAAUUCGUUUUUUGAUCUGAAAUAUUCAGAGUCUGCAGAUCGGAAGAGCACACGU
B6: target 3 insC 3' of 4,insA 3' of 4 (mixed)
RNA 1: CACCCGUGCAAAAUUGCAGGGGUCUAAAACGACCUGAAUAUUUCAGAUCAAA
RNA 2: GGGAAUGGAUCCACAUCUACGAAUUCGUUUUUGAUCUGAAAUAUUCAGCAGUCUGCAGAUCGGAAGAGCACACGU
B7: target 3 complement block 1-7 (mixed)
RNA 1: CACCCGUGCAAAAUUGCAGGGGUCUAAAACGACCUGAAUAUUUCAGAUCAAA
RNA 2: GGGAAUGGAUCCACAUCUACGAAUUCGUUUUUGAUCUGAAAUAUAGUCCAGUGCAGAUCGGAAGAGCACACGU
B8: target 3 C6U,C16U (mixed)
RNA 1: CACCCGUGCAAAAUUGCAGGGGUCUAAAACGACCUGAAUAUUUCAGAUCAAA
RNA 2: GGGAAUGGAUCCACAUCUACGAAUUCGUUUUUGAUUUGAAAUAUUUAGGUCUGCAGAUCGGAAGAGCACACGU
B9: target 3 insC 3' of 5,insU 3' of 3 (mixed)
RNA 1: CACCCGUGCAAAAUUGCAGGGGUCUAAAACGACCUGAAUAUUUCAGAUCAAA
RNA 2: GGGAAUGGAUCCACAUCUACGAAUUCGUUUUUGAUCUGAAAUAUUCACGGUUCUGCAGAUCGGAAGAGCACACGU
B10: target 3 insC 3' of 22,insU 3' of 4 (mixed)
RNA 1: CACCCGUGCAAAAUUGCAGGGGUCUAAAACGACCUGAAUAUUUCAGAUCAAA
RNA 2: GGGAAUGGAUCCACAUCUACGAAUUCGUUUCUUGAUCUGAAAUAUUCAGUGUCUGCAGAUCGGAAGAGCACACGU
B11: target 1 insU 3' of 14,insU 3' of 9 (mixed)
RNA 1: CACCCGUGCAAAAAUGCAGGGGUCUAAAACUGAGCGGAUAACCUCUCUAUGG
RNA 2: GGGAAUGGAUCCACAUCUACGAAUUCGUACCAUAGAGAUGGUUAUUCCGCUCACCGAGAUCGGAAGAGCACACGU
B12: target 1 insC 3' of 8,insA 3' of 8 (mixed)
RNA 1: CACCCGUGCAAAAAUGCAGGGGUCUAAAACUGAGCGGAUAACCUCUCUAUGG
RNA 2: GGGAAUGGAUCCACAUCUACGAAUUCGUACCAUAGAGAGGUUAUCACCGCUCACCGAGAUCGGAAGAGCACACGU
B13: target 1 insC 3' of 13,insA 3' of 13 (mixed)
RNA 1: CACCCGUGCAAAAAUGCAGGGGUCUAAAACUGAGCGGAUAACCUCUCUAUGG
RNA 2: GGGAAUGGAUCCACAUCUACGAAUUCGUACCAUAGAGAGCAGUUAUCCGCUCACCGAGAUCGGAAGAGCACACGU

target: T1, EsCas13d, nuclease-dead; assay: crRNA (strand 1, pre-loaded); Mg2+; 40 mM Tris-HCl pH 7.5, 150 mM NaCl, 6 mM MgCl2, 1 mM DTT, 0.1% Tween-20, 0.2 mg/ml BSA; 25 C; 10 min per concentration, then washed; conditions: tags: His6-TwinStrep-SUMO cleaved; N-terminal SNAP kept (SNAP-Surface 488); label: 3' end held by stalled T7 RNA polymerase

B1 and B2 are within error of each other in Kd: roughly 40 nM for the first, 45.5 ± 11.5 nM for the second.

Going from B3 to B4, the Kd falls from 55.5 ± 13 nM to 26.1 ± 2.35 nM (2.1-fold). The second binds more tightly here.

Going from B5 to B6, the Kd falls from 69.5 ± 15.5 nM to 21.8 ± 2.15 nM (3.2-fold). The second binds more tightly here.

B7 and B8 are within error of each other in Kd: 57 ± 8.5 nM for the first, 84.5 ± 20 nM for the second.

B9 and B10 are within error of each other in Kd: 7.75 ± 0.6 nM for the first, 8.75 ± 2.3 nM for the second.

Compared with B11, B12 is 5.3-fold lower in Kd: 52 ± 9 nM for the first, 9.9 ± 0.5 nM for the second.

Binder B13 has a Kd of 17.2 ± 1.6 nM.
